Reference: publication PMC2970747

Target: FLAG-Mfn2 (UniProt O95140)
Assay: co-IP

UniProt O95140, sequence (O95140 whole entry): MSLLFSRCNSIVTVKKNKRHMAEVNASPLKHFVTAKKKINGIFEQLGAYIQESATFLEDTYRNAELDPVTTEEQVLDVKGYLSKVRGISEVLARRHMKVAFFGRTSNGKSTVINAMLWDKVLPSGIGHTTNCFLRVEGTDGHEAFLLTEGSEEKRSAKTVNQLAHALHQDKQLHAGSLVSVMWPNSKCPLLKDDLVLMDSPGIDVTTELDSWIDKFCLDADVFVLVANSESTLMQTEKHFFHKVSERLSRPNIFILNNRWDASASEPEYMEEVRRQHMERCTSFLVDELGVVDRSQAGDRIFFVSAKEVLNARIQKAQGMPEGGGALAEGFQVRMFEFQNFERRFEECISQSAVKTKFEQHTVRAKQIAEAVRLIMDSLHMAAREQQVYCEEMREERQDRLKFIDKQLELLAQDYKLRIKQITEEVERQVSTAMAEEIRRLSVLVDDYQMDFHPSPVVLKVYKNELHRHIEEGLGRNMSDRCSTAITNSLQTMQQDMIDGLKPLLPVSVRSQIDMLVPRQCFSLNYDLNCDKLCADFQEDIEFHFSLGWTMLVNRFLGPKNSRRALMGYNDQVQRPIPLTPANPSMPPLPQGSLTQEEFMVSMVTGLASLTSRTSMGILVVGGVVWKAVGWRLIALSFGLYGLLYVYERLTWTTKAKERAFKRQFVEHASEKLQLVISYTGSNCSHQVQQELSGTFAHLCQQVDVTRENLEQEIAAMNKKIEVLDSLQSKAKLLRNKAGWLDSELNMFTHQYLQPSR

GFP-Bcl-xL/Bax H5
percent of GFP-Bcl-xL/Bax H5 bound to FLAG-Mfn2: 3%
